Laboratory results reported in patent US20180155451A1 (published 2018).

B1: GpH7-B3 variant L328_19Q/GpL16-k0 (Ho Ab) (antibody, human IgG1, kappa)
heavy: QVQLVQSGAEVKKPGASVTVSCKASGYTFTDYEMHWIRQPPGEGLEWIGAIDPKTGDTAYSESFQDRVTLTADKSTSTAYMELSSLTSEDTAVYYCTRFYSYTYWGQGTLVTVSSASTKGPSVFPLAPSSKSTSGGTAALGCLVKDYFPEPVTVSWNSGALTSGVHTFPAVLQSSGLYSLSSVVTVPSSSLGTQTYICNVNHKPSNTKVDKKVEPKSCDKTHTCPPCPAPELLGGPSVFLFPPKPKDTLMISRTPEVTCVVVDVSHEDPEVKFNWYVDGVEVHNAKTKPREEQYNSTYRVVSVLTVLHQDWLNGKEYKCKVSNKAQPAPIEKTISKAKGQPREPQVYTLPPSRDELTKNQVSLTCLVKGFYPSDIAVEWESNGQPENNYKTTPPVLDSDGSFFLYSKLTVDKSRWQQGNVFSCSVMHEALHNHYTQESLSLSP
light: DIVMTQSPLSLPVTPGEPASISCQASESLVHSNRNTYLHWYLQKPGQSPQLLIYKVSNRFSGVPDRFSGSGSGTDFTLKISRVEAEDVGVYYCSQNTHVPPTFGQGTKVEIERTVAAPSVFIFPPSDEQLKSGTASVVCLLNNFYPREAKVQWKVDNALQSGNSQESVTEQDSKDSTYSLSSTLTLSKADYEKHKVYACEVTHQGLSSPVTKSFNRGEC
notes: Substitution in both H chains; position in EU numbering; also called L328Q homodimerized antibody
B2: GpH7-B3 variant P238_08L/GpL16-k0 (Ho Ab) (antibody, human IgG1, kappa)
heavy: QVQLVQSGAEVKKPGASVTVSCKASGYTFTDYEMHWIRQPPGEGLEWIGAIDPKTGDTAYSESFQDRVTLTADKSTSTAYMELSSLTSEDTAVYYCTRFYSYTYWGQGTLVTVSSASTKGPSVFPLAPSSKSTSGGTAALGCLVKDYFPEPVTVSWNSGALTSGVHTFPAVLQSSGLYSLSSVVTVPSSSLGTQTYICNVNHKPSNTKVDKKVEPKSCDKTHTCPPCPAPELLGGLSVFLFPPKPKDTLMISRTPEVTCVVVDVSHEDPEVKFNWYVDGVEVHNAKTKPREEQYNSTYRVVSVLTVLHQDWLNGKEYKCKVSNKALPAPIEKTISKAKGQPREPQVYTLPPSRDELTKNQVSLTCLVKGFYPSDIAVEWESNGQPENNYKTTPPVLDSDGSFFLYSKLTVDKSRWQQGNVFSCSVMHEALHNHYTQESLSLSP
light: DIVMTQSPLSLPVTPGEPASISCQASESLVHSNRNTYLHWYLQKPGQSPQLLIYKVSNRFSGVPDRFSGSGSGTDFTLKISRVEAEDVGVYYCSQNTHVPPTFGQGTKVEIERTVAAPSVFIFPPSDEQLKSGTASVVCLLNNFYPREAKVQWKVDNALQSGNSQESVTEQDSKDSTYSLSSTLTLSKADYEKHKVYACEVTHQGLSSPVTKSFNRGEC
notes: Substitution in both H chains; position in EU numbering; also called P238L homodimerized antibody
B3: GpH7-B3 variant P271_01G/GpL16-k0 (Ho Ab) (antibody, human IgG1, kappa)
heavy: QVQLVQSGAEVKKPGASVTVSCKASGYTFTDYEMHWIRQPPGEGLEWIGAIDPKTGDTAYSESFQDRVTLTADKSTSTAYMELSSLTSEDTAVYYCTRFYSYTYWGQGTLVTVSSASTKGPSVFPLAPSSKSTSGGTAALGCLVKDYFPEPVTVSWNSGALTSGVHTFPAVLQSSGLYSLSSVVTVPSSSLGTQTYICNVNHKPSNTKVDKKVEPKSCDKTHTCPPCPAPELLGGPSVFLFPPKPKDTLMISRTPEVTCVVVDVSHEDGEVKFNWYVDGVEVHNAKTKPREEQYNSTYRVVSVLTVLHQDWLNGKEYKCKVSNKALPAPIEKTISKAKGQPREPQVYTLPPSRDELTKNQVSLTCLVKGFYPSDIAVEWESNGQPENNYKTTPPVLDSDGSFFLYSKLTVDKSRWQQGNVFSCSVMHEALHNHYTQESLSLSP
light: DIVMTQSPLSLPVTPGEPASISCQASESLVHSNRNTYLHWYLQKPGQSPQLLIYKVSNRFSGVPDRFSGSGSGTDFTLKISRVEAEDVGVYYCSQNTHVPPTFGQGTKVEIERTVAAPSVFIFPPSDEQLKSGTASVVCLLNNFYPREAKVQWKVDNALQSGNSQESVTEQDSKDSTYSLSSTLTLSKADYEKHKVYACEVTHQGLSSPVTKSFNRGEC
notes: Substitution in both H chains; position in EU numbering; also called P271G homodimerized antibody
B4: GpH7-B3 variant P271_08L/GpL16-k0 (Ho Ab) (antibody, human IgG1, kappa)
heavy: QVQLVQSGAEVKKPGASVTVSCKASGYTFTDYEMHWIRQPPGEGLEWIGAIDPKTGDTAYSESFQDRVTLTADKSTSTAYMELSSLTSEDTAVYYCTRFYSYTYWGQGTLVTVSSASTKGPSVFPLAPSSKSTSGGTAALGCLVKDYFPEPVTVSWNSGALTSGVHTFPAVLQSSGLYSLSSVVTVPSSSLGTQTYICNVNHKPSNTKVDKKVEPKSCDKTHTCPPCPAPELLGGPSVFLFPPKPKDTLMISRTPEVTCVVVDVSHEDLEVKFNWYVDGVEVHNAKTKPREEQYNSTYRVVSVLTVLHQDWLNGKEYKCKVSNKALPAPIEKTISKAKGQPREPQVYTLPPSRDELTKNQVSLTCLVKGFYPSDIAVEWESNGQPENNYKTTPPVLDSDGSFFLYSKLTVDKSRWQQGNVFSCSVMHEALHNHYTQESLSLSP
light: DIVMTQSPLSLPVTPGEPASISCQASESLVHSNRNTYLHWYLQKPGQSPQLLIYKVSNRFSGVPDRFSGSGSGTDFTLKISRVEAEDVGVYYCSQNTHVPPTFGQGTKVEIERTVAAPSVFIFPPSDEQLKSGTASVVCLLNNFYPREAKVQWKVDNALQSGNSQESVTEQDSKDSTYSLSSTLTLSKADYEKHKVYACEVTHQGLSSPVTKSFNRGEC
notes: Substitution in both H chains; position in EU numbering; also called P271L homodimerized antibody
B5: GpH7-B3 variant P331_04F/GpL16-k0 (Ho Ab) (antibody, human IgG1, kappa)
heavy: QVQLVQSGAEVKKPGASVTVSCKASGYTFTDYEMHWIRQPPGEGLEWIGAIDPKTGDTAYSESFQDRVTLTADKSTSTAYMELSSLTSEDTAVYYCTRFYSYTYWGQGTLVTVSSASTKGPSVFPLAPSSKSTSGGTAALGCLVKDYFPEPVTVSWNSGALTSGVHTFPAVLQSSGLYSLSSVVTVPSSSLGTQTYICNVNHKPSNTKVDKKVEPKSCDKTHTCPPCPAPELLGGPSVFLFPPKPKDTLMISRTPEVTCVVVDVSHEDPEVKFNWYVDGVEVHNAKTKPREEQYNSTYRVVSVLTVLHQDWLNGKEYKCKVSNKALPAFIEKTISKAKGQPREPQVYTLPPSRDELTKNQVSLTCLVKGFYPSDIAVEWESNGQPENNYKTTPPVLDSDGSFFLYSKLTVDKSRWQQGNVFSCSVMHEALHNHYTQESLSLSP
light: DIVMTQSPLSLPVTPGEPASISCQASESLVHSNRNTYLHWYLQKPGQSPQLLIYKVSNRFSGVPDRFSGSGSGTDFTLKISRVEAEDVGVYYCSQNTHVPPTFGQGTKVEIERTVAAPSVFIFPPSDEQLKSGTASVVCLLNNFYPREAKVQWKVDNALQSGNSQESVTEQDSKDSTYSLSSTLTLSKADYEKHKVYACEVTHQGLSSPVTKSFNRGEC
notes: Substitution in both H chains; position in EU numbering; also called P331F homodimerized antibody
B6: GpH7-B3 variant S239_01G/GpL16-k0 (Ho Ab) (antibody, human IgG1, kappa)
heavy: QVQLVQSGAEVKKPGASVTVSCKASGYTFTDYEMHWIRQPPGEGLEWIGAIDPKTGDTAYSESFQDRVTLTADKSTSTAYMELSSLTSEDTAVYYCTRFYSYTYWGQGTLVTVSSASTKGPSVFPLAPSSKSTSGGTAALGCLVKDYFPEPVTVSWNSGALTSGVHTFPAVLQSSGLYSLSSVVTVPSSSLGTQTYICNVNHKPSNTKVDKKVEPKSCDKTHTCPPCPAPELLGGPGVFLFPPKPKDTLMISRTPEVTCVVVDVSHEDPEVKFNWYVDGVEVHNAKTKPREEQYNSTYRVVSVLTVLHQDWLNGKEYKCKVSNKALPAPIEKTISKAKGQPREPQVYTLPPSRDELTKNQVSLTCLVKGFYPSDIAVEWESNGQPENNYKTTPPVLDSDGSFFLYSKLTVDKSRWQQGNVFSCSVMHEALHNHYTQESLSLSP
light: DIVMTQSPLSLPVTPGEPASISCQASESLVHSNRNTYLHWYLQKPGQSPQLLIYKVSNRFSGVPDRFSGSGSGTDFTLKISRVEAEDVGVYYCSQNTHVPPTFGQGTKVEIERTVAAPSVFIFPPSDEQLKSGTASVVCLLNNFYPREAKVQWKVDNALQSGNSQESVTEQDSKDSTYSLSSTLTLSKADYEKHKVYACEVTHQGLSSPVTKSFNRGEC
notes: Substitution in both H chains; position in EU numbering; also called S239G homodimerized antibody
B7: GpH7-B3 variant S239_07I/GpL16-k0 (Ho Ab) (antibody, human IgG1, kappa)
heavy: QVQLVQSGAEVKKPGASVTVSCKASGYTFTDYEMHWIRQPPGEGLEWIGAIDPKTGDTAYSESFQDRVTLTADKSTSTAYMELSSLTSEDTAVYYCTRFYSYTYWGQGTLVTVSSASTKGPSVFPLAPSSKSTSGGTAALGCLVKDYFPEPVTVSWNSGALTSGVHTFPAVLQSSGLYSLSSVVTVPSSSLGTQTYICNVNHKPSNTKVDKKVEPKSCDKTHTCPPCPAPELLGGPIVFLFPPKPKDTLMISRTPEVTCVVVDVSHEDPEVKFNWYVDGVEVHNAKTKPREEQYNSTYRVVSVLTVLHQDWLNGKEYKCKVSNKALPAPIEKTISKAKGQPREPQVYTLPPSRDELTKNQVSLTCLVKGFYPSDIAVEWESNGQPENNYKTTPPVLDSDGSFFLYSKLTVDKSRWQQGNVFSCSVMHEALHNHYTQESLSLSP
light: DIVMTQSPLSLPVTPGEPASISCQASESLVHSNRNTYLHWYLQKPGQSPQLLIYKVSNRFSGVPDRFSGSGSGTDFTLKISRVEAEDVGVYYCSQNTHVPPTFGQGTKVEIERTVAAPSVFIFPPSDEQLKSGTASVVCLLNNFYPREAKVQWKVDNALQSGNSQESVTEQDSKDSTYSLSSTLTLSKADYEKHKVYACEVTHQGLSSPVTKSFNRGEC
notes: Substitution in both H chains; position in EU numbering; also called S239I homodimerized antibody
B8: GpH7-B3 variant S239_08L/GpL16-k0 (Ho Ab) (antibody, human IgG1, kappa)
heavy: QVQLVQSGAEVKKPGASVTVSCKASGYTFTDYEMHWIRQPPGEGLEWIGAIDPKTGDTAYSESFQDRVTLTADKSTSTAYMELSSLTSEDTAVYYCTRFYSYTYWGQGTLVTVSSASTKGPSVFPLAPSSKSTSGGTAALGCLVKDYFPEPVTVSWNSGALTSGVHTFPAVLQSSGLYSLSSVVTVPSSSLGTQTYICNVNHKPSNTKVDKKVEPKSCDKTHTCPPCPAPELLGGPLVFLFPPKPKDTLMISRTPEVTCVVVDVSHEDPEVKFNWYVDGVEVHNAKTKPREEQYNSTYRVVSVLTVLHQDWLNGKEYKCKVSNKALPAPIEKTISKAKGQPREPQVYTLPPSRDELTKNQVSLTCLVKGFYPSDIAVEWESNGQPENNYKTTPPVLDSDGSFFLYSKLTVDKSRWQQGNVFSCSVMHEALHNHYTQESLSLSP
light: DIVMTQSPLSLPVTPGEPASISCQASESLVHSNRNTYLHWYLQKPGQSPQLLIYKVSNRFSGVPDRFSGSGSGTDFTLKISRVEAEDVGVYYCSQNTHVPPTFGQGTKVEIERTVAAPSVFIFPPSDEQLKSGTASVVCLLNNFYPREAKVQWKVDNALQSGNSQESVTEQDSKDSTYSLSSTLTLSKADYEKHKVYACEVTHQGLSSPVTKSFNRGEC
notes: Substitution in both H chains; position in EU numbering; also called S239L homodimerized antibody
B9: GpH7-B3 variant S239_09D/GpL16-k0 (Ho Ab) (antibody, human IgG1, kappa)
heavy: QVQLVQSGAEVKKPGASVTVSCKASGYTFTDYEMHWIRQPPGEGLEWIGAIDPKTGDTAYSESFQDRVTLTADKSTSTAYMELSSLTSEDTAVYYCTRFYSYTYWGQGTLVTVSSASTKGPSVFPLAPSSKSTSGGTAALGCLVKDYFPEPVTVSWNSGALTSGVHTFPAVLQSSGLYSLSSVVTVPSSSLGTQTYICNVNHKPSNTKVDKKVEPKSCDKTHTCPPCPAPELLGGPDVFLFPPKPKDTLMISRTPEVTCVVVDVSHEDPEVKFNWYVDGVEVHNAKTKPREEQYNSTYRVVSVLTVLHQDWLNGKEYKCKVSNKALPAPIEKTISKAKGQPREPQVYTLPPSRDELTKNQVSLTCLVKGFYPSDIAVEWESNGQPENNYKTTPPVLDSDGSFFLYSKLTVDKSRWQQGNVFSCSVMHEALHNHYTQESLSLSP
light: DIVMTQSPLSLPVTPGEPASISCQASESLVHSNRNTYLHWYLQKPGQSPQLLIYKVSNRFSGVPDRFSGSGSGTDFTLKISRVEAEDVGVYYCSQNTHVPPTFGQGTKVEIERTVAAPSVFIFPPSDEQLKSGTASVVCLLNNFYPREAKVQWKVDNALQSGNSQESVTEQDSKDSTYSLSSTLTLSKADYEKHKVYACEVTHQGLSSPVTKSFNRGEC
notes: Substitution in both H chains; position in EU numbering; also called S239D homodimerized antibody
B10: GpH7-B3 variant S239_18N/GpL16-k0 (Ho Ab) (antibody, human IgG1, kappa)
heavy: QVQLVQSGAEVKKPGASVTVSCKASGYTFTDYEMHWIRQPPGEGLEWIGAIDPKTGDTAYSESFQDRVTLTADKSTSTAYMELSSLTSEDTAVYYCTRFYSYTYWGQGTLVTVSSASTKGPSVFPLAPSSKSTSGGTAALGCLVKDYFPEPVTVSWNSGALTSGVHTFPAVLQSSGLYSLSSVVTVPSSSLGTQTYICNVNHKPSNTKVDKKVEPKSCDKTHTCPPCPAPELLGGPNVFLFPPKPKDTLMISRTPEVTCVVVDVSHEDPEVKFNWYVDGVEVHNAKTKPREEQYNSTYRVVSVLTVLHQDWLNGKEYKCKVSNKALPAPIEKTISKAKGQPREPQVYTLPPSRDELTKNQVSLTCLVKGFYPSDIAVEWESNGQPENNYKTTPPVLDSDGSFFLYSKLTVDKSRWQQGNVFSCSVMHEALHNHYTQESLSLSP
light: DIVMTQSPLSLPVTPGEPASISCQASESLVHSNRNTYLHWYLQKPGQSPQLLIYKVSNRFSGVPDRFSGSGSGTDFTLKISRVEAEDVGVYYCSQNTHVPPTFGQGTKVEIERTVAAPSVFIFPPSDEQLKSGTASVVCLLNNFYPREAKVQWKVDNALQSGNSQESVTEQDSKDSTYSLSSTLTLSKADYEKHKVYACEVTHQGLSSPVTKSFNRGEC
notes: Substitution in both H chains; position in EU numbering; also called S239N homodimerized antibody
B11: GpH7-B3 variant S267_02A/GpL16-k0 (Ho Ab) (antibody, human IgG1, kappa)
heavy: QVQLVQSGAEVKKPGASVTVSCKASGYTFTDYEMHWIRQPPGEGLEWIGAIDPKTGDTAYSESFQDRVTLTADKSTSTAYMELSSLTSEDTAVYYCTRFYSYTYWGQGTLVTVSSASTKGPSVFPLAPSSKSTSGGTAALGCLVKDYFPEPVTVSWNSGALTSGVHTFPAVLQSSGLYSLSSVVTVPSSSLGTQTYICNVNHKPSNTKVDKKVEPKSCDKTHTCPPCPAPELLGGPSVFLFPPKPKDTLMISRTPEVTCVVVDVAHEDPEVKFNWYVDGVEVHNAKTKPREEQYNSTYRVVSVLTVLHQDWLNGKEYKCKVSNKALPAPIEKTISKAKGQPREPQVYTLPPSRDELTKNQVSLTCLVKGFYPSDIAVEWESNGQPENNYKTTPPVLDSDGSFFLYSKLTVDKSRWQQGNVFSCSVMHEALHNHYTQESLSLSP
light: DIVMTQSPLSLPVTPGEPASISCQASESLVHSNRNTYLHWYLQKPGQSPQLLIYKVSNRFSGVPDRFSGSGSGTDFTLKISRVEAEDVGVYYCSQNTHVPPTFGQGTKVEIERTVAAPSVFIFPPSDEQLKSGTASVVCLLNNFYPREAKVQWKVDNALQSGNSQESVTEQDSKDSTYSLSSTLTLSKADYEKHKVYACEVTHQGLSSPVTKSFNRGEC
notes: Substitution in both H chains; position in EU numbering; also called S267A homodimerized antibody

The binders below were run against T1, FcγRIIb extracellular domain with C-terminal His tag (human, UniProt P31994 43-217) (assay: SPR (Biacore), antibody captured on antigen-peptide chip, FcgRIIb as analyte; binding relative to GpH7-B3/GpL16-k0 (HoCon Ab) = 100).
T1 construct: extracellular domain; Expressed in FreeStyle293 cells; used as analyte in Biacore; also called FcgRIIb; 2b; not shown: C-terminal His tag
T1 sequence (looked up): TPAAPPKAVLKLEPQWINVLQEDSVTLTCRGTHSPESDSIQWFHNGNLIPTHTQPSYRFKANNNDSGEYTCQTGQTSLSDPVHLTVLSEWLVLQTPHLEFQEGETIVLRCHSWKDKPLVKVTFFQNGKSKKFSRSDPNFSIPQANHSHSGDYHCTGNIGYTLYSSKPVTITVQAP
In the case of B1, the Ho/Con_2b is reported as 111 % of control.
B2 was tested, and the Ho/Con_2b was 235 % of control.
In the case of B3, the Ho/Con_2b is reported as 229 % of control.
B4 was tested, and the Ho/Con_2b was 113 % of control.
For B5, the Ho/Con_2b was 113 % of control.
With B6 the Ho/Con_2b was 174 % of control.
B7 was tested, and the Ho/Con_2b was 108 % of control.
B8 was tested, and the Ho/Con_2b was 142 % of control.
In the case of B9, the Ho/Con_2b is reported as 224 % of control.
In the case of B10, the Ho/Con_2b is reported as 125 % of control.
In the case of B11, the Ho/Con_2b is reported as 274 % of control.
